According to PMC3229523, “Identification of Lactoferricin B Intracellular Targets Using an Escherichia coli Proteome Chip” (PLoS ONE, 2011):
Ends that are not written are not given here. * marks the point of attachment. Biotin = O=C1N[C@H]2[C@H](CS[C@H]2CCCCC(=O)*)N1

Tests used:
Test in all cases: peptide or protein array; E. coli proteome chip: purified His-tagged proteins printed in duplicate on Fullmoon slides, blocked with 1% BSA; 10 nM N-terminal biotinylated LfcinB with 1% BSA, room temperature, 1 h; detected with DyLight 649-labeled streptavidin, ratio to DyLight 549-labeled anti-His antibody; ProCAT normalisation, local cut-off; triplicate chips
Conditions in all cases: both partners purified
[1] = target: T1, SoxR (E. coli K-12, UniProt P0ACS2 1-154)
T1 construct: SoxR, E. coli K-12
T1 sequence (looked up): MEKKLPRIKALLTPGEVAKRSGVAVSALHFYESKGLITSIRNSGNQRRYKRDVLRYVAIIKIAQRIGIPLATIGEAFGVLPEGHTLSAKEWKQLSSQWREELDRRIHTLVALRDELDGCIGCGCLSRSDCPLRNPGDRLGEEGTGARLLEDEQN

[2] = target: T2, YbaQ (E. coli K-12, UniProt P0A9T6 1-113)
T2 construct: YbaQ, E. coli K-12
T2 sequence (looked up): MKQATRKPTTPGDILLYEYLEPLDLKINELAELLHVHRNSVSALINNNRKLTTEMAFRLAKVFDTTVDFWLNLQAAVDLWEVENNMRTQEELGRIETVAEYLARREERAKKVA

[3] = target: RplE (E. coli K-12, UniProt P62399 1-179)
[4] = target: T3, PaaG (E. coli K-12, UniProt P77467 1-262)
T3 construct: PaaG, E. coli K-12
T3 sequence (looked up): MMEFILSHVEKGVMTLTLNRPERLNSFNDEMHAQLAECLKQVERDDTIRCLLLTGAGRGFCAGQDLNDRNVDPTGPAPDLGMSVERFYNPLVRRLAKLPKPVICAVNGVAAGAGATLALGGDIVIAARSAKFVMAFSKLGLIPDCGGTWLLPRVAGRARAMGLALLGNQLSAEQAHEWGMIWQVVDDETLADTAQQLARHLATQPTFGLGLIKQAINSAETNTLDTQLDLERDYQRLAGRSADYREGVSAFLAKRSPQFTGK

[5] = target: RplN (E. coli K-12, UniProt P0ADY3 1-123)
[6] = target: T4, RhaD (E. coli K-12, UniProt P32169 1-274)
T4 construct: RhaD, E. coli K-12
T4 sequence (looked up): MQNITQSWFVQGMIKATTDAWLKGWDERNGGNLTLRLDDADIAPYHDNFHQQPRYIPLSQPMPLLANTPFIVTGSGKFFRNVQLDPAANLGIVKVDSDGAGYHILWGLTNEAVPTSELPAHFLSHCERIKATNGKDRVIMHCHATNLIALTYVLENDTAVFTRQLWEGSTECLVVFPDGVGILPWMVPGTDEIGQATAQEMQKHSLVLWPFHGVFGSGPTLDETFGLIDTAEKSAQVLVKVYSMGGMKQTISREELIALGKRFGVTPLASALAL

[7] = target: T5, YibA (E. coli K-12, UniProt P0ADK6 1-280)
T5 construct: YibA, E. coli K-12
T5 sequence (looked up): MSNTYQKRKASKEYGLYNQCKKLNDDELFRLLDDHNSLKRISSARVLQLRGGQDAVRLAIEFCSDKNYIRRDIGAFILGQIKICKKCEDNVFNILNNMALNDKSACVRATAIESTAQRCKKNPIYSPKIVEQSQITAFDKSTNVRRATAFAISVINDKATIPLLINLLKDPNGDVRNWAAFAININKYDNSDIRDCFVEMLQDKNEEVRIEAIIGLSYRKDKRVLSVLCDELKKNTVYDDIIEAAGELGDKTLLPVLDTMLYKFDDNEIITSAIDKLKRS

[8] = target: T6, RfaZ (E. coli K-12, UniProt P27241 1-283)
T6 construct: RfaZ, E. coli K-12
T6 sequence (looked up): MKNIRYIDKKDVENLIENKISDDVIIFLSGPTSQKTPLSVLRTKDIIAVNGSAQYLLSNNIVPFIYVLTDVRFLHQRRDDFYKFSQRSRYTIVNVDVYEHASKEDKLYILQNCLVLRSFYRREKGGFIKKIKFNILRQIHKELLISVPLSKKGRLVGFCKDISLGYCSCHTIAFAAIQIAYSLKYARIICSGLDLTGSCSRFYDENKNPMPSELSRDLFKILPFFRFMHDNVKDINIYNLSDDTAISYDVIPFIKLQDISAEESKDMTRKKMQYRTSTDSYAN

Measured: binding result

B1: N-terminal biotinylated Lactoferricin B (peptide, UniProt P24627 36-60, looked up)
peptide: Biotin-FKCRRWQWRMKKLGAPSITCVRRAF
modifications: ends and bridges not checked
notes: lactoferricin B (LfcinB), cationic antimicrobial peptide of 25 amino acids; also called biotinylated LfcinB; biotin-labeled LfcinB; source: bought: Kelowna Inc
binds: all assays above
